In assay [1] the target is T1, Extracellular domain (ECD) of the canine IL-4 receptor alpha-V5 epitope-AviTag-His Tag (canine).
T1 construct: monomeric form isolated by size exclusion; also called canine IL-4RA-V5-Avi-His; canine IL-4RA
T1 chain: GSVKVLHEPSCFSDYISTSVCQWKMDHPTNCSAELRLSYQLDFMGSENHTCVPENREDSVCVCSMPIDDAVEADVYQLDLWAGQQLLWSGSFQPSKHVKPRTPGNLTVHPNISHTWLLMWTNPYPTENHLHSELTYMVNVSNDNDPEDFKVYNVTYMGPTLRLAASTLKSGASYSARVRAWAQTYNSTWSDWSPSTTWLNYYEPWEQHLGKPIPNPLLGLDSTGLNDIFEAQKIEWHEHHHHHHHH
Nature of the assay: SPR, antibody captured via anti-human Fc.

Assay [2] addresses T2, Extracellular domain (ECD) of the canine IL-4 receptor alpha-AviTag-His Tag (canine).
T2 construct: expressed in CHO cells; also called canine IL-4RA; canine IL4Ra
T2 chain: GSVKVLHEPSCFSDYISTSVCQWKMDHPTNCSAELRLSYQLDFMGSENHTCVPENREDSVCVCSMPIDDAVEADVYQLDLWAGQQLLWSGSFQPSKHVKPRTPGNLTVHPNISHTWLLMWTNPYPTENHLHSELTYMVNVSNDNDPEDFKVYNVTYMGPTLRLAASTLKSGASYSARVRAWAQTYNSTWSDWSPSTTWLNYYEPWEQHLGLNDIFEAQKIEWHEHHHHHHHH
Nature of the assay: SPR, IgG captured via anti-dog H+L.

Assay [3] addresses T1, Extracellular domain (ECD) of the …. Nature of the assay: SPR, Fab-SASA captured on BSA.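 Also: biacore T200 SPR, Fab-SASA variants from E. coli conditioned medium captured on BSA-coated CM5 chip, canine IL-4RA injected 120 s then 420 s dissociation, 1:1 model fit.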 Background: In SPR one partner is held on a chip, and binding of the other changes the refractive index at the surface.
For assay [4], the target named is canine IL-4RA (construct not given) (canine). Nature of the assay: SPR, combinatorial Fab-SASA clone.
The target in assay [5] is T2, Extracellular domain (ECD) of the …. The assay is described as follows: SPR, IgG captured via anti-dog H+L.
For assay [6] the target is unchanged. The assay is described as follows: SPR, IgG captured via anti-dog Fc.
For assay [7] the target is unchanged. Nature of the assay: SPR, IgG captured via anti-dog Fc.
The target is the same in assay [8]. Nature of the assay: SPR, IgG captured via anti-dog Fc.
Assay [9] addresses canine IL-4RA on canine DH82 cells (canine). The assay is described as follows: cell-based or functional assay.

Positions count from the first letter of the chain named. Several values for one entry are separate records, joined by “and”; a condition that tells them apart may be missing. Equal entries are not always repeated.

B1: Dupilumab (dupilumab VH with human IgG1 constant region, dupilumab kappa light chain) (antibody, V domains shown)
VH: EVQLVESGGGLEQPGGSLRLSCAGSGFTFRDYAMTWVRQAPGKGLEWVSSISGSGGNTYYADSVKGRFTISRDNSKNTLYLQMNSLRAEDTAVYYCAKDRLSITIRPRYYGLDVWGQGTTVTVSS
VL: DIVMTQSPLSLPVTPGEPASISCRSSQSLLYSIGYNYLDWYLQKSGQSPQLLIYLGSNRASGVPDRFSGSGSGTDFTLKISRVEAEDVGFYYCMQALQTPYTFGQGTKLEIKR
notes: human IgG1 instead of the IgG4 of the drug
One may read the Kd as the free concentration of one partner at which half of the binding sites on the other are occupied at equilibrium, for simple one-to-one binding. As a reminder, the koff is the first-order rate constant of dissociation. A word on the kon: it is the rate constant with which the complex forms. As for B1, in assay [1], the Kd was 130 nM, the koff was 0.143 s⁻¹ and the kon was 1.09e+06 M⁻¹ s⁻¹.

B2: TB640_275 (antibody, V domains shown)
VH: EVQLVESGGDLVKPGGSLRLSCVASGFTFRDYAMDWVRQAPGKGLQWLSLISGSGGKTYYADAVKGRFTISRDNAKNTLYLQMNSLRAEDTAVYYCAVDRLTKTIRPQYYGLWVWGQGTLVTVSS
VL: DIVMTQTPLSLSVSPGETASISCRSSQSLLYSIGYNYLDWYMQKPGQSPQGLIYLGSKRASGVSDRFSGSGSGADFTLKISRVEADDAGVYYCMQGLQSPLTFGQGTKLEIKR
notes: also called TB640_275-H + TB640_275-L
As for B2, in [2], binding was put at a Kd of 1.71 nM, the koff came to 0.000487 s⁻¹ and the kon turned out to be 287000 M⁻¹ s⁻¹.

B3: TB640_005 Fab-SASA wild type (Fab, V domains shown)
VH: B2 VH with D35T, L48V
VL: B2 VL with M42L, S64P, A74T, K79R, D86N, A88T
notes: secreted from E. coli, tested in conditioned medium; also called WT; not shown: SASA tag then His-tag
Take B3: in assay [3], the equilibrium dissociation constant (Kd) is 13 nM and 13.3 nM and 13.2 nM; the “Ratio WT-kd/clone-kd” value turned out to be 1; the koff was 0.000952 s⁻¹ and 0.000953 s⁻¹; the association rate constant (kon) is 73100 M⁻¹ s⁻¹ and 71700 M⁻¹ s⁻¹ and 72400 M⁻¹ s⁻¹. Also, in [4], the Kd is 6.07 nM, the off-rate constant (koff) worked out at 0.00116 s⁻¹ and the kon was 191000 M⁻¹ s⁻¹.

B4: TB640_057 (antibody, V domains shown)
VH: B2 VH with D35T, L48V, L50T, S52T, K57N, V98K, T102S, K103I, Q108R, W113D
VL: DIVMTQTPLSLSVSPGETASISCRASQSLLYSIGYNYLDWYLQKPGQSPQGLIYLGSKRASGVPDRFSGSGSGTDFTLRISRVEANDTGVYYCMQAIQAPYTFGQGTKLEIKR
notes: caninized IgG
In [5], B4 had a Kd of 5.54 nM, a koff of 0.00107 s⁻¹ and an on-rate constant (kon) of 194000 M⁻¹ s⁻¹.

B5: TB640_109 (antibody, V domains shown)
VH: B2 VH with D35T, L48V, L50T, W113S
VL: B4 VL with I97L, Q98R, A99D
notes: caninized IgG
In assay [5], B5 displayed a Kd of 6.06 nM, an off-rate (koff) of 0.00136 s⁻¹ and a kon of 225000 M⁻¹ s⁻¹.

B6: Fjmix_PS-H + 21188-L (antibody, V domains shown)
VH: B2 VH with T28P, V114S
VL: B2 VL with L30T, T102G
In assay [6], B6 yielded a Kd of 0.878 nM, a dissociation rate constant (koff) of 0.000206 s⁻¹ and a kon of 235000 M⁻¹ s⁻¹.

B7: 21188-H + GFmix_THS-L (antibody, V domains shown)
VH: B2 VH with D35T, V114H
VL: B2 VL with L30T, Q98H, T102G
Take B7: in [7], binding was characterised by a dissociation constant (Kd) of 0.162 nM, the koff was 5.78e-05 s⁻¹ and the kon is 357000 M⁻¹ s⁻¹.

B8: 21188-H + FJP10A09-L (antibody, V domains shown)
VH: B2 VH with D35T, V114H
VL: B2 VL with L30T, Q98H, T102S
B8: in assay [7], the Kd stood at 0.143 nM, the koff came out at 4.62e-05 s⁻¹ and the kon was 324000 M⁻¹ s⁻¹.

B9: 21188-H + GFmix2_KTHG-L (antibody, V domains shown)
VH: B2 VH with D35T, V114H
VL: B2 VL with Q27K, L30T, Q98H, T102G
Turning to B9, in assay [7], binding was put at a Kd of 0.168 nM, the koff worked out at 5.92e-05 s⁻¹ and the kon came to 354000 M⁻¹ s⁻¹.

B10: FJP05A03-H + GFmix3_KTHS-L (antibody, V domains shown)
VH: B2 VH with F27L, T28P, D35A
VL: B2 VL with Q27K, L30T, Q98H, T102S
As for B10, in assay [8], the Kd was found to be 0.187 nM, the koff was found to be 8.68e-05 s⁻¹ and the kon came to 466000 M⁻¹ s⁻¹.

B11: GFmix_PTH-H + GFmix3_KTHS-L (antibody, V domains shown)
VH: B2 VH with T28P, D35T, V114H
VL: B2 VL with Q27K, L30T, Q98H, T102S
In [8], B11 gave a Kd of 0.17 nM, an off-rate (koff) of 7.58e-05 s⁻¹ and a kon of 447000 M⁻¹ s⁻¹. In [9], the “IC50: % inhibition of STAT6 phosphorylation (AlphaLISA pSTAT6) in canine DH82 cells stimulated with 20 ng/mL canine IL-4” value stood at 0.6 nM.

B12: FJP05A03-H + 21188-L (antibody, V domains shown)
VH: B2 VH with F27L, T28P, D35A
VL: B2 VL with L30T, T102G
In assay [6], B12 had a Kd of 0.377 nM, a koff of 0.000105 s⁻¹ and a kon of 279000 M⁻¹ s⁻¹.

B13: FJP07H09-H + 21188-L (antibody, V domains shown)
VH: B2 VH with V114S
VL: B2 VL with L30T, T102G
In assay [6], B13 yielded a Kd of 1.07 nM, a koff of 0.000253 s⁻¹ and a kon of 236000 M⁻¹ s⁻¹.

B14: 21188-H + 21188-L (antibody, V domains shown)
VH: B2 VH with D35T, V114H
VL: B2 VL with L30T, T102G
In assay [6], B14 showed a dissociation constant (Kd) of 0.4 nM, a koff of 9.85e-05 s⁻¹ and a kon of 246000 M⁻¹ s⁻¹. Further, in [8], the affinity, expressed as Kd, was 0.243 nM; the off-rate constant (koff) is 9.93e-05 s⁻¹; the kon was 410000 M⁻¹ s⁻¹. Further, in assay [7], binding was put at a Kd of 0.18 nM, the koff was 5.96e-05 s⁻¹ and the kon came to 332000 M⁻¹ s⁻¹. Further, in [9], the “IC50: % inhibition of STAT6 phosphorylation (AlphaLISA pSTAT6) in canine DH82 cells stimulated with 20 ng/mL canine IL-4” value came to 2.17 nM.

B15: FJP05A03-H + FJP10A09-L (antibody, V domains shown)
VH: B2 VH with F27L, T28P, D35A
VL: B2 VL with L30T, Q98H, T102S
In assay [8], B15 yielded a Kd of 0.201 nM, a koff of 8.87e-05 s⁻¹ and a kon of 442000 M⁻¹ s⁻¹.

B16: FJP05A03-H + GFmix_THS-L (antibody, V domains shown)
VH: B2 VH with F27L, T28P, D35A
VL: B2 VL with L30T, Q98H, T102G
As to B16, in [8], the equilibrium dissociation constant (Kd) turned out to be 0.169 nM, the koff turned out to be 8.32e-05 s⁻¹ and the kon was 492000 M⁻¹ s⁻¹.

B17: 21188-H + FJP10F04-L (antibody, V domains shown)
VH: B2 VH with D35T, V114H
VL: B2 VL with Q27K, Q98H
B17: in [7], binding was put at a Kd of 0.238 nM, the koff was 6.81e-05 s⁻¹ and the kon was 286000 M⁻¹ s⁻¹.

B18: Gfmix_PTH-H + 21188-L (antibody, V domains shown)
VH: B2 VH with T28P, D35T, V114H
VL: B2 VL with L30T, T102G
As for B18, in [6], the Kd stood at 0.381 nM, the koff is 9.71e-05 s⁻¹ and the kon was 255000 M⁻¹ s⁻¹.

B19: 21188-H + GFmix3_KTHS-L (antibody, V domains shown)
VH: B2 VH with D35T, V114H
VL: B2 VL with Q27K, L30T, Q98H, T102S
In assay [7], B19 showed a Kd of 0.144 nM, a koff of 4.79e-05 s⁻¹ and a kon of 333000 M⁻¹ s⁻¹.

B20: GFmix_PTH-H + FJP10A09-L (antibody, V domains shown)
VH: B2 VH with T28P, D35T, V114H
VL: B2 VL with L30T, Q98H, T102S
With B20, in [8], the Kd came out at 0.167 nM, the koff amounted to 7e-05 s⁻¹ and the on-rate (kon) was determined as 419000 M⁻¹ s⁻¹.

B21: FJP06D01-H + 21188-L (antibody, V domains shown)
VH: B2 VH with T28P
VL: B2 VL with L30T, T102G
Turning to B21, in [6], the Kd stood at 0.908 nM, the koff is 0.000208 s⁻¹ and the kon is 230000 M⁻¹ s⁻¹.

B22: TB640_005 (antibody, V domains shown)
VH: B2 VH with D35T, L48V
VL: B4 VL with A25S, A96G, I97L, A99S, Y101L
notes: caninized IgG; also called TB640_005-H + TB640_005-L
In assay [8], B22 registered a Kd of 2.29 nM, a koff of 0.000486 s⁻¹ and an on-rate constant (kon) of 212000 M⁻¹ s⁻¹. In assay [5], this molecule came in with a Kd of 2.72 nM, a koff of 0.000484 s⁻¹ and a kon of 180000 M⁻¹ s⁻¹.

The values are drawn from patent publication US20250188176A1 (INVETX, published 2025).
